Molecular target: Hsp90 (Hsp82), full length (S. cerevisiae, UniProt P02829 1-709)
Test: AUC

Hsp90 (Hsp82), full length, sequence (P02829 whole entry): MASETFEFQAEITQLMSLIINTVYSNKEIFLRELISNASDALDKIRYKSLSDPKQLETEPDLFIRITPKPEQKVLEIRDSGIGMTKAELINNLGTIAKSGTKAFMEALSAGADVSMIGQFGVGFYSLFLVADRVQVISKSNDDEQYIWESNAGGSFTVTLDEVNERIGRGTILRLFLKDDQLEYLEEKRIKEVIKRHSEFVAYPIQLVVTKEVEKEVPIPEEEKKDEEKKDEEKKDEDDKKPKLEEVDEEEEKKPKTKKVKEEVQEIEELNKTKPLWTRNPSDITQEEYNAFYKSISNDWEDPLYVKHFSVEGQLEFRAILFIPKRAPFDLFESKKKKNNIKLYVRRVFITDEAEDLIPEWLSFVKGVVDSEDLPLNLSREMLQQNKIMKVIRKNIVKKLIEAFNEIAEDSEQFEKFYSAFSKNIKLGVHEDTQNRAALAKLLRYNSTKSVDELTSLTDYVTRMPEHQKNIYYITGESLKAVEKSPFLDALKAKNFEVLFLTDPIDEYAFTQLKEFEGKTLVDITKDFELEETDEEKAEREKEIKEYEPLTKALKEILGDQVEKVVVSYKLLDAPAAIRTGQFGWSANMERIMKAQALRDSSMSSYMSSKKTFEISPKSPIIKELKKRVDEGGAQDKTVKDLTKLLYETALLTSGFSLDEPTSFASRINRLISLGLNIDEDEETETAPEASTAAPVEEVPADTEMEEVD

- Kd: 510 nM
B1: Sgt1 (Suppressor of the G2 Allele of Skp1), full length (natural protein, S. cerevisiae, UniProt Q08446 1-395, looked up)
chain: MPVEKDLKTAYKALYDEKEPLKALHLYDEILKGSPTNLTALIFKAACLEKLYFGFSDWHSDATMENAKELLDKALMTAEGRGDRSKIGLVNFRYFVHFFNIKDYELAQSYFKKAKNLGYVDDTLPLWEDRLETKLNKKNKKQKDSTNKHTIKPVESIENRGDNNSSHSPISPLKIETAPQESPKFKIDWYQSSTSVTISLFTVNLPESKEQVNIYISPNDRRTLSISYQVPKSGSEFQYNAKLSHEVDPKAVSLKIFPKKLEITLSKIDSTQWKKLEEDILTESSRLSDEGKNSDSATRLLSAETASKERLSYPSSSKKKIDWSKLDIDEEADEEAGSADSFFQKLYAGADPDTKRAMMKSFIESNGTALSTDWEDVSKGTVKTSPPEGMEPKHW
modifications: Atto488 (maleimide) label where it is the labeled species in aUC

— publication doi:10.1101/2025.04.24.648904 (bioRxiv, 2025)
